Target: the molecule itself
Assay: SEC; gel filtration of the purified protein, data not shown; native molecular mass of about 224000 Da

B1: human aldehyde dehydrogenase 1A3 (enzyme, UniProt P47895 1-512, looked up)
chain: MATANGAVENGQPDRKPPALPRPIRNLEVKFTKIFINNEWHESKSGKKFATCNPSTREQICEVEEGDKPDVDKAVEAAQVAFQRGSPWRRLDALSRGRLLHQLADLVERDRATLAALETMDTGKPFLHAFFIDLEGCIRTLRYFAGWADKIQGKTIPTDDNVVCFTRHEPIGVCGAITPWNFPLLMLVWKLAPALCCGNTMVLKPAEQTPLTALYLGSLIKEAGFPPGVVNIVPGFGPTVGAAISSHPQINKIAFTGSTEVGKLVKEAASRSNLKRVTLELGGKNPCIVCADADLDLAVECAHQGVFFNQGQCCTAASRVFVEEQVYSEFVRRSVEYAKKRPVGDPFDVKTEQGPQIDQKQFDKILELIESGKKEGAKLECGGSAMEDKGLFIKPTVFSEVTDNMRIAKEEIFGPVQPILKFKSIEEVIKRANSTDYGLTAAVFTKNLDKALKLASALESGTVWINCYNALYAQAPFGGFKMSGNGRELGEYALAEYTEVKTVTIKLGDKNP
notes: human ALDH1A3, full-length open reading frame amplified from cDNA of the mesenchymal glioma stem cell line 83 and cloned into pDEST17; predicted molecular weight 56108 Da; Crystallised after pre-incubation with 1 mM NAD+ and 1 mM all-trans retinoic acid; No removal of the His tag is described; In the crystal no density for the N-terminal portion and the last four residues; also called ALDH1A3; …
stoichiometry N: 4

Reference: PMC5069622, “Crystal structure of human aldehyde dehydrogenase 1A3 complexed with NAD^+ and retinoic acid” (Scientific Reports, 2016)
